Source: paper doi:10.1101/2025.02.19.638559, “The architecture, assembly, and evolution of a complex flagellar motor” (bioRxiv, 2025)

What was measured:
[1] = target: FlgY_(15–172), FlgY without the predicted signal peptide (C. jejuni 81-176); experiment: SEC; Superdex 200 Increase 10/300 GL; 20 mM Tris-HCl pH 8.0, 300 mM NaCl
[2] = target: FlgY_(90–172) (C. jejuni 81-176); experiment: as above
PflA_(16–788)-Strep = target: T1, PflA_(16–788)-Strep (C. jejuni 81-176, UniProt Q46092 16-788); experiment: MST
T1 chain: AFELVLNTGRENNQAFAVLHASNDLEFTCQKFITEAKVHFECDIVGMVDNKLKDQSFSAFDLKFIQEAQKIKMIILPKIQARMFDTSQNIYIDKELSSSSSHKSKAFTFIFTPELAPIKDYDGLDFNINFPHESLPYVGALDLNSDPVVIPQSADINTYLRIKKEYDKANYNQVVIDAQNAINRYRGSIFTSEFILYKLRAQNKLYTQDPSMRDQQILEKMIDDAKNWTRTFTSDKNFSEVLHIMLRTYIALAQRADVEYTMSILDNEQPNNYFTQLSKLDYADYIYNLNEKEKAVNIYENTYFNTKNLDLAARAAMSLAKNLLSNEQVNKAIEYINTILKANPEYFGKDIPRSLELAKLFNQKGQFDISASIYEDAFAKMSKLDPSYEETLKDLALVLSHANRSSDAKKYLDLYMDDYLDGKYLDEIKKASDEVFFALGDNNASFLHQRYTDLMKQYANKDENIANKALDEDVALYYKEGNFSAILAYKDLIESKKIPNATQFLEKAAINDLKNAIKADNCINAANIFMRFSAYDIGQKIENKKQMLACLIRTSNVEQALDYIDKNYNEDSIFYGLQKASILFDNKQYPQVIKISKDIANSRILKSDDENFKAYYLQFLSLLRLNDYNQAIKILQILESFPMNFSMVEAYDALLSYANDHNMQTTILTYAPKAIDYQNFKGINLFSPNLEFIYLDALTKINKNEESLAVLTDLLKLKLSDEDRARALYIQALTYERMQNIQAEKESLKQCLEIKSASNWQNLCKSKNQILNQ

PflB_(113–820) = target: T2, PflB_(113–820) (C. jejuni 81-176, UniProt A0A6F9L7Y3 113-820); experiment: cryo-EM structure; single-particle cryo-EM of the purified PflA16-788 and PflB113-820 complex at 0.4 mg/ml; 3.23 Å; conditions: both partners purified
T2 construct: PflB of C. jejuni 81-176, residues 113-820; 178-820 resolved in the cryo-EM structure; also called PflB_(178–820) (the part built in the model)
T2 sequence: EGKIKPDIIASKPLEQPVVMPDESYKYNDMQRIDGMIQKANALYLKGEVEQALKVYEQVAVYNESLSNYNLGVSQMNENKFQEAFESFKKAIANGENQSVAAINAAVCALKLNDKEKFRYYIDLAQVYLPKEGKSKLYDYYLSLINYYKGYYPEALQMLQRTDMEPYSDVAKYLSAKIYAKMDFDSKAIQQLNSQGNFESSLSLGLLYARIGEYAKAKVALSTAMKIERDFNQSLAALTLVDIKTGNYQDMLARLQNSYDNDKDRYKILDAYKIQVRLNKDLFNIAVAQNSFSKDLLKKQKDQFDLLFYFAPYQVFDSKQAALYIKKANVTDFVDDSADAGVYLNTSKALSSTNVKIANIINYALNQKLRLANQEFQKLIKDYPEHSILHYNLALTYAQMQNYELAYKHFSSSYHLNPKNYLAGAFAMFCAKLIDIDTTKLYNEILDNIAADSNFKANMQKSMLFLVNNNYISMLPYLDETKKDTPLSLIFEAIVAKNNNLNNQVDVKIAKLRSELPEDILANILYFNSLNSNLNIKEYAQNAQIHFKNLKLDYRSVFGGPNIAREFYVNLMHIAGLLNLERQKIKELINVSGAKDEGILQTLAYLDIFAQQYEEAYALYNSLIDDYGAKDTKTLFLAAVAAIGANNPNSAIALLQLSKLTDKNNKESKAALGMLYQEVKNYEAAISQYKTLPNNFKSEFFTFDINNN

## FlgY_(15–172), FlgY without the predicted signal peptide (domain or fragment)
[1]
  stoichiometry N: 2

## FlgY_(90–172) (domain or fragment)
[2]
  stoichiometry N: 2

B1: FlgY_(15–172), FlgY without the predicted signal peptide (domain or fragment)
chain: VFGAEQDCEQYFEARKAQIELQTREFDEARQSLEAYKASFEALQKERLENLEKKEAEVNATLAKIEELKLENARLVEEQQKILNSINDKTQGRVKEIYSQMKDAAIADVLSQMDAEDASKIMLSLESRKISGVLSKMDPKKASELTLLLKNLDNNASN
PflA_(16–788)-Strep
  Kd: 3.5 µM

B2: PflA_(16–788) of the purified PflA_(16–788) and PflB_(113–820) complex (domain or fragment)
chain: AFELVLNTGRENNQAFAVLHASNDLEFTCQKFITEAKVHFECDIVGMVDNKLKDQSFSAFDLKFIQEAQKIKMIILPKIQARMFDTSQNIYIDKELSSSSSHKSKAFTFIFTPELAPIKDYDGLDFNINFPHESLPYVGALDLNSDPVVIPQSADINTYLRIKKEYDKANYNQVVIDAQNAINRYRGSIFTSEFILYKLRAQNKLYTQDPSMRDQQILEKMIDDAKNWTRTFTSDKNFSEVLHIMLRTYIALAQRADVEYTMSILDNEQPNNYFTQLSKLDYADYIYNLNEKEKAVNIYENTYFNTKNLDLAARAAMSLAKNLLSNEQVNKAIEYINTILKANPEYFGKDIPRSLELAKLFNQKGQFDISASIYEDAFAKMSKLDPSYEETLKDLALVLSHANRSSDAKKYLDLYMDDYLDGKYLDEIKKASDEVFFALGDNNASFLHQRYTDLMKQYANKDENIANKALDEDVALYYKEGNFSAILAYKDLIESKKIPNATQFLEKAAINDLKNAIKADNCINAANIFMRFSAYDIGQKIENKKQMLACLIRTSNVEQALDYIDKNYNEDSIFYGLQKASILFDNKQYPQVIKISKDIANSRILKSDDENFKAYYLQFLSLLRLNDYNQAIKILQILESFPMNFSMVEAYDALLSYANDHNMQTTILTYAPKAIDYQNFKGINLFSPNLEFIYLDALTKINKNEESLAVLTDLLKLKLSDEDRARALYIQALTYERMQNIQAEKESLKQCLEIKSASNWQNLCKSKNQILNQ
notes: PflA of C. jejuni 81-176, residues 16-788; only 16-163 (β-sandwich domain and flexible loop) are resolved in the cryo-EM structure; PflA16-788 was cloned both in pET22b (C-terminal 6×His) and in pET26b (C-terminal Strep-tag); also called PflA_(16–163) (the part resolved in the map)
PflB_(113–820)
  stoichiometry N: 1
